Assay results as given in a protein production outcome set (Wang et al. 2014).

Experiment: label from the status in PepcDB records

Sequence | protein production
MAPLLSLCMIVKNEAHQLRRCLQSVQPWVDEIIIVDTGSTDGTIAIACEFTPHVHAVAWQGDFAAARNAALAQATGEWVFYIDADEELVVTDAHWQDQLTAPGAHAINQWSLLRREQSSDRNWSEFWNVRFGRRFPDLHFAGALHEQLCYREREAVVGELQGVYLIHHNQQSQEQFLAKIRDRNIPILETMVQQGDRRLQNLVCLGDHYAACGDSDRSQAWYEQALEEIASAVEQGILPRETTWLRHLLFWVSYRAFEAKDYETAQYYLSYGLRFFDRYPPLLYVAGLFVFELGLPRGALPYFHRCLDLFEAGSYDRTEPFDRQWMTTQPAYSLGYTYMTLQERDRAIAYFQKTLKFNPDYPPAQMYLEQLLRASANQGLEHHHHHH | failed
MAPRTYASVLTTPRGPAPLALYCPEAPECPKLEAISNLSFQQITQQAGTSNDQGFEFENTYVEHRINQEIESFVDTHHQEPLRKAAAQFRAVMKQEYPDSTCFITGSYPAGVDIFSSDIDFTVKVPTLEGANPFLKLMQLRKELSCYYTIFSKAYVQKGNIPVLQLMHAETKVSIDVTIDNDTSKRNTQLLAFYSQLDTRFPLLCKAMKAWAASCGVEGASRGRLNSFSLCLMLIHYLQTVQVLLNIQEIFPELNGDIVVEDDNYMKRDLKIEILEKGAFDFNQNTSSLAVLFIGFMKYYSEFNFKWNWISIKHGNVLKKKWSKTRVPKNGMPKDCRFIVVADPLLEIPRNCAGTVRQQNYMERIQLEFREEYERILKRKTIFNLYQCNWSRKLRKEGMERDLQIMILQDELRKLRIANLPTEEEVPWGTVVDFTSPRTFSPTNQHPKVFWCSEQTTENQRRDNLWPELLRTNPYAIFENLI | not failed
MAPSHDRGRVDRALARVSHAFSILIAALTFALPGVATAGDVPTFAVDPAWPKPLPNNWILGQVGGITVDWQGHIWVIHRPRSLTDDEKGASLNPPRSKCCVSAPPVLEFDTDGNLLRSWGGLGEGYEWVGREHGIEVDERGFVWVGGNADNDNAILKFTLDGKFVAQIGKIAPSLGSNDTTQLGKPAETAIDKAANEIYVADGYGNRRVIVFDATTLAYKRHWGAYGNKPNDDKQGPYDPKAPVAQQFGNPVHCVKLANDGLVYVCDRINNRIQVFRKDGTFVKEFFFEKNTLGNGAVWDIAIWPDPKQTWLLSADGENNEIRVIRRDDGSVVGSFGRNGRNAGQFHWVHAMAIDAKGNVYTAEVDTGKRIQKFKLTSDALK | failed
MAPVKLYMVEVIDKKEIAANERRSRENDVTGPEITHYYQVTFRLTTDDRKDLVLNIDKSSYQNIEPEMKGRLFMQGSRFVQFETDVPIDEQKLEHHHHHH | not failed
MAPVLENRRARHDYEILETYEAGIALKGTEVKSLRAGKVDFTGSFARFEDGELYLENLYIAPYEKGSYANVDPRRKRKLLLHKHELRRLLGKVEQKGLTLVPLKIYFNERGYAKVLLGLARGKKAYEKRREDKKEAVRRALEEL | not failed
MAQARCGGELLGLRAVLCVPPCPMPRLLPLTLLLLAAAAHAQSAAPLTIEQAMADPDWIGPSVDQAWWQWDGKQVQYLLKRAGSPVRDTYRQSTAGGTAERVADTARAGLDAANPSYDATRQRMLFARNGDIFLRDLRSGALTQLTRSNEIESRPQFASDGGAIWRAGNNWYHWRADGGTAQVAVVKAERDPDAAPKPDVLREHQLATLATLRRDKEQRDALRTQDDAWRRADATRAAAPVYLGDEVEIVDSALSPDGRHLLVVTQATNAEEGQAGKMPKYVTESGYEEFQEVRTRVGRNASVAHALWLVDVSAGTAKSLSFDPLPGIATDPLAALRKAAKRDALKGNRAVRVESNGDGSGPAVHWSDDGRNVAVEIRAVDNKDRWIASVDLDNAKLQPRHRLSDSAWINWDFNDFGWLPDNRTLWLLSEESGYSQLYTMEGNSKPRQRTRGKWEVSMPVPSADGSGMFFLCNQKWPGDYEVCKLDLRNDQLTEVTALNGVEGFSLSPNGQQLLVSYSGSYLPTQLAVVPATGGQATVLTDTRTPAFKAQPWIAPQYVQVPSKHGAGTVWGKYYGPTTPEPGKQYPIVMFVHGAGYLQNVSERYTPYFREQMFHNLLVQQGYIVLDLDYRASRGYGRDWRTAIYRNMGHTELEDYLDGLDWLVATKQGDRARAGIYGGSYGGFMTYMALFRSPGTFKAGAALRPVGDWMQYNHEYTSNILNTPELDPEAYKTSSPINYAEGLRDHLLIAHGMIDDNVFFKDSVDMTQKLMELHKDNWQLALYPLERHGFTRADSWLDEYKRILKLFNAQVKP | failed
MAQDIIDGINPTRMELLSLKNRTKLAVKGHGLLKEKRDALIKEFFDILDRVKGVREAAERSLKEANEALLEAQIAMGDLAVRKASLSVKESIDVDIKSRSVMGVSVPVTNVKMEERSIIDRGYSFSDTTIQLDEAAKKFEESIKFLIELGEVEKTIFLLAEEIEATKRRVNALEHIMIPRFENTEKYIDMRLQEMERENFVRLKMIRSTIEKKDNEAKEAAIEEEAAEVEA | failed
